Target: T1, human CD48 (full-length hCD48), on cells (human, UniProt P09326 27-220)
T1 construct: also called membrane-associated CD48
T1 sequence: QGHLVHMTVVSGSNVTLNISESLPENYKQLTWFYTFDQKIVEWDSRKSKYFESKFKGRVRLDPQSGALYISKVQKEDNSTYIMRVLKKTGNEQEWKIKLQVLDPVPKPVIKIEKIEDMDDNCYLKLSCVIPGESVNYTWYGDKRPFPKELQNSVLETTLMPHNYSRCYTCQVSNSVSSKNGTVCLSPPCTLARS
Experiment: not told at this place (summary sentence in the description)
Experimental: Equilibrium binding assays were performed on transiently expressed hCD48. Full-length hCD48 in the expression vector pDC409 was transfected into CV-1/EBNA cells and these cells were diluted 1:20 into a carrier cell (Daudi). Serial dilutions of NAIL-Fc in binding media (RPMI 1640), 2.5% bovine serum albumin, […] HEPES, 0.02% Na azide [pH 7.2]) were incubated with cells (combination of carrier cells and transiently expressed cells 2.5×10⁶ combined cells/well) for 2 hours at 4° C. in a total of […] in a 96-well microtiter plate. The plate was centrifuged and the supernatants were aspirated. One-hundred fifty microliters of ¹²⁵I goat anti-human IgG Fcγ (Jackson Immunoresearch Laboratories, Inc., West Grove, Pa.; cat #109-006-098) was added to each well and cells were incubated another 1 hour at 4° C. Free and bound probes were separated by the pthalate oil separation method, essentially as described (Dower et al., J.Immunol. 132:751-758, 1984). Goat anti-human IgG Fcγ was labeled with […] using solid phase chloramine T analog (Iodogen; Pierce Chemical, Rockford, Ill.) to a specific radioactivity of 2.11×10¹⁵ cpm/mmol. […] No binding of C1.7-Fc or CD48-Fc proteins could be detected on nontransfected cells.

B1: NAIL-Fc polypeptide (soluble NAIL-Fc fusion protein) (Fc fusion)
chain: CQGSADHVVSISGVPLQLQPNSIQTKVDSIAWKKLLPSQNGFHHILKWENGSLPSNTSNDRFSFIVKNLSLLIKAAQQQDSGLYCLEVTSISGKVQTATFQVFVFDKVEKPRLQGQGKILDRGRCQVALSCLVSRDGNVSYAWYRGSKLIQTAGNLTYLDEEVDINGTHTYTCNVSNPVSWESHTLNLTQDCQNAHQEFRRSCDKTHTCPPCPAPEAEGAPSVFLFPPKPKDTLMISRTPEVTCVVVDVSHEDPEVKFNWYVDGVEVHNAKTKPREEQYNSTYRVVSVLTVLHQDWLNGKEYKCKVSNKALPAPIEKTISKAKGQPREPQVYTLPPSREEMTKNQVSLTCLVKGFYPSDIAVEWESNGQPENNYKTTPPVLDSDGSFFLYSKLTVDKSRWQQGNVFSCSVMHEALHNHYTQKSLSLSPGK
notes: also called C1.7-Fc; soluble NAIL polypeptide
B1 showed a Kd of ~0.1 nM.
